# Positions count from the first letter of the chain named.
# B1: TACI-4 Fc (Fc fusion)
# chain: GGRSRVDQEERFPQGLWTGVAMRSCPEEQYWDPLLGTCMSCKTICNHQSQRTCAAFCRSLSCRKEQGKFYDHLLRDCISCASICGQHPKQCAYFCENKLRSPVNLPPELRKQRSGEVENNSDNSGKYQGLEHRGSEASPALPGLKLSADQVALVYSDKTHTCPPCPAPEAEGAPSVFLFPPKPKDTLMISRTPEVTCVVVDVSHEDPEVKFNWYVDGVEVHNAKTKPREEQYNSTYRVVSVLTVLHQDWLNGKEYKCKVSNKALPSSIEKTISKAKGQPREPQVYTLPPSRDELTKNQVSLTCLVKGFYPSDIAVEWESNGQPENNYKTTPPVLDSDGSFFLYSKLTVDKSRWQQGNVFSCSVMHEALHNHYTQKSLSLSPGK
# notes: two identical polypeptides
# B2: TACI-8 Fc (Fc fusion)
# chain: SLSCRKEQGKFYDHLLRDCISCASICGQHPKQCAYFCENKLRSPVNLPPELRKQRSGEVENNSDNSGKYQGLEHRGSEASPALPGLKLSADQVALVYSDKTHTCPPCPAPEAEGAPSVFLFPPKPKDTLMISRTPEVTCVVVDVSHEDPEVKFNWYVDGVEVHNAKTKPREEQYNSTYRVVSVLTVLHQDWLNGKEYKCKVSNKALPSSIEKTISKAKGQPREPQVYTLPPSRDELTKNQVSLTCLVKGFYPSDIAVEWESNGQPENNYKTTPPVLDSDGSFFLYSKLTVDKSRWQQGNVFSCSVMHEALHNHYTQKSLSLSPGK
# notes: two identical polypeptides
# B3: TACI-2 Fc (Fc fusion)
# chain: SGLGRSRKGGKSRVDQEERFPQGLWTGVAMRSCPEEQYWDPLLGTCMSCKTICNHQSQRTCAAFCRSLSCRKEQGKFYDHLLRDCISCASICGQHPKQCAYFCENKLRSPVNLPPELRKQRSGEVENNSDNSGDKTHTCPPCPAPEAEGAPSVFLFPPKPKDTLMISRTPEVTCVVVDVSHEDPEVKFNWYVDGVEVHNAKTKPREEQYNSTYRVVSVLTVLHQDWLNGKEYKCKVSNKALPSSIEKTISKAKGQPREPQVYTLPPSRDELTKNQVSLTCLVKGFYPSDIAVEWESNGQPENNYKTTPPVLDSDGSFFLYSKLTVDKSRWQQGNVFSCSVMHEALHNHYTQKSLSLSPGK
# notes: two identical polypeptides
# B4: TACI-1 Fc (Fc fusion)
# chain: SGLGRSRKGGKSRVDQEERFPQGLWTGVAMRSCPEEQYWDPLLGTCMSCKTICNHQSQRTCAAFCRSLSCRKEQGKFYDHLLRDCISCASICGQHPKQCAYFCENKLRSPVNLPPELRKQRSGEVEQNSDNSGKYQGLEHRGSEASPALPGLKLSADQVALVYSDKTHTCPPCPAPEAEGAPSVFLFPPKPKDTLMISRTPEVTCVVVDVSHEDPEVKFNWYVDGVEVHNAKTKPREEQYNSTYRVVSVLTVLHQDWLNGKEYKCKVSNKALPSSIEKTISKAKGQPREPQVYTLPPSRDELTKNQVSLTCLVKGFYPSDIAVEWESNGQPENNYKTTPPVLDSDGSFFLYSKLTVDKSRWQQGNVFSCSVMHEALHNHYTQKSLSLSPGK
# notes: two identical polypeptides
# B5: TACI-5 Fc (Fc fusion)
# chain: GGRSRVDQEERFPQGLWTGVAMRSCPEEQYWDPLLGTCMSCKTICNHQSQRTCAAFCRSLSCRKEQGKFYDHLLRDCISCASICGQHPKQCAYFCENKLRSPVNLPPELRKQRSGEVENNSDNSGDKTHTCPPCPAPEAEGAPSVFLFPPKPKDTLMISRTPEVTCVVVDVSHEDPEVKFNWYVDGVEVHNAKTKPREEQYNSTYRVVSVLTVLHQDWLNGKEYKCKVSNKALPSSIEKTISKAKGQPREPQVYTLPPSRDELTKNQVSLTCLVKGFYPSDIAVEWESNGQPENNYKTTPPVLDSDGSFFLYSKLTVDKSRWQQGNVFSCSVMHEALHNHYTQKSLSLSPGK
# notes: two identical polypeptides
# B6: TACI-7 Fc (Fc fusion)
# chain: FPQGLWTGVAMRSCPEEQYWDPLLGTCMSCKTICNHQSQRTCAAFCRSLSCRKEQGKFYDHLLRDCISCASICGQHPKQCAYFCENKLRSPVNLPPDKTHTCPPCPAPEAEGAPSVFLFPPKPKDTLMISRTPEVTCVVVDVSHEDPEVKFNWYVDGVEVHNAKTKPREEQYNSTYRVVSVLTVLHQDWLNGKEYKCKVSNKALPSSIEKTISKAKGQPREPQVYTLPPSRDELTKNQVSLTCLVKGFYPSDIAVEWESNGQPENNYKTTPPVLDSDGSFFLYSKLTVDKSRWQQGNVFSCSVMHEALHNHYTQKSLSLSPGK
# notes: two identical polypeptides
# B7: TACI-3 Fc (Fc fusion)
# chain: SGLGRSRKGGKSRVDQEERFPQGLWTGVAMRSCPEEQYWDPLLGTCMSCKTICNHQSQRTCAAFCRSLSCRKEQGKFYDHLLRDCISCASICGQHPKQCAYFCENKLRSPVNLPPELRKQRSGEVEDKTHTCPPCPAPEAEGAPSVFLFPPKPKDTLMISRTPEVTCVVVDVSHEDPEVKFNWYVDGVEVHNAKTKPREEQYNSTYRVVSVLTVLHQDWLNGKEYKCKVSNKALPSSIEKTISKAKGQPREPQVYTLPPSRDELTKNQVSLTCLVKGFYPSDIAVEWESNGQPENNYKTTPPVLDSDGSFFLYSKLTVDKSRWQQGNVFSCSVMHEALHNHYTQKSLSLSPGK
# notes: two identical polypeptides
# B8: TACI-6 Fc (Fc fusion)
# chain: GGRSRVDQEERFPQGLWTGVAMRSCPEEQYWDPLLGTCMSCKTICNHQSQRTCAAFCRSLSCRKEQGKFYDHLLRDCISCASICGQHPKQCAYFCENKLRSPVNLPPELRKQRSGEVEDKTHTCPPCPAPEAEGAPSVFLFPPKPKDTLMISRTPEVTCVVVDVSHEDPEVKFNWYVDGVEVHNAKTKPREEQYNSTYRVVSVLTVLHQDWLNGKEYKCKVSNKALPSSIEKTISKAKGQPREPQVYTLPPSRDELTKNQVSLTCLVKGFYPSDIAVEWESNGQPENNYKTTPPVLDSDGSFFLYSKLTVDKSRWQQGNVFSCSVMHEALHNHYTQKSLSLSPGK
# notes: two identical polypeptides
# B9: TACI-9-1Fc (Fc fusion)
# chain: STSCRKEQGKFYDHLLRDCISCASICGQHPKQCAYFCENKLDKTHTCPPCPAPEAEGAPSVFLFPPKPKDTLMISRTPEVTCVVVDVSHEDPEVKFNWYVDGVEVHNAKTKPREEQYNSTYRVVSVLTVLHQDWLNGKEYKCKVSNKALPSSIEKTISKAKGQPREPQVYTLPPSRDELTKNQVSLTCLVKGFYPSDIAVEWESNGQPENNYKTTPPVLDSDGSFFLYSKLTVDKSRWQQGNVFSCSVMHEALHNHYTQKSLSLSPGK
# notes: two identical polypeptides
# B10: TACI-9-5Fc (Fc fusion)
# chain: B9 chain with T2L, K10E
# notes: two identical polypeptides
# B11: TACI-9-6Fc (Fc fusion)
# chain: B9 chain with T2R, D18T
# notes: two identical polypeptides
# B12: TACI-9-4Fc (Fc fusion)
# chain: B9 chain with T2L, K6Q
# notes: two identical polypeptides
# B13: TACI-9-14Fc (Fc fusion)
# chain: B9 chain with Y35A, F36Y
# notes: two identical polypeptides
# B14: TACI-9-3Fc (Fc fusion)
# chain: B9 chain with T2L, K6E
# notes: two identical polypeptides
# B15: TACI-9-12Fc (Fc fusion)
# chain: B9 chain with Y35A
# notes: two identical polypeptides
# B16: TACI-9-8Fc (Fc fusion)
# chain: B9 chain with T2L, Y35A
# notes: two identical polypeptides
# B17: TACI-9-9Fc (Fc fusion)
# chain: B9 chain with T2R, D18T, Y35R
# notes: two identical polypeptides
# B18: TACI-9-13Fc (Fc fusion)
# chain: B9 chain with F36Y
# notes: two identical polypeptides
# B19: TACI-9-7Fc (Fc fusion)
# chain: B9 chain with T2R, D18A
# notes: two identical polypeptides
# B20: TACI-9-11Fc (Fc fusion)
# chain: B9 chain with T2L, R5S, K6E, K10E
# notes: two identical polypeptides
# B21: TACI-9-2Fc (Fc fusion)
# chain: B9 chain with T2L, R5S
# notes: two identical polypeptides
# Biological target: T1, human BAFF (10056-HNCH, Sino biological) (human, UniProt Q9Y275 134-285)
# T1 construct: Bought protein
# Assay: competition ELISA: biotin-labeled BAFF to coated BAFF-R
# Description: The blocking activity of the antibodies and the fusion proteins for receptors and ligands such as BAFF/BAFF-R, BAFF/BCMA, BAFF/TACI, APRIL/BCMA, APRIL/TACI, and p40/IL-12R1 was assayed by the ELISA method. The specific procedures were as follows:
# A receptor protein was diluted to 2 μg/mL with PBS at pH 7.4 (BasalMedia, B320) and added to a 96-well microplate (Corning, 3590) at 100 μL/well. The plate was incubated at 4° C. overnight. After the liquid was discarded, 200 μL of 1% Casein blocking solution (Thermo, 37528) was added to each well for blocking, and the plate was incubated at 37° C. for 2 h. After the blocking was completed, the blocking solution was discarded, and the plate was washed 3 times with a PBST buffer (PBS at pH 7.4 containing 0.1% tween-20) for later use. A biotin-labeled ligand protein at a fixed concentration was mixed with the antibody or fusion protein diluted in gradient, pre-incubated at 37° C. for 30 min, and added to a blocked microplate. The plate was incubated at 37° C. for 1.5 h. After the incubation was completed, the plate was washed 3 times with PBST. 100 μL of streptavidin-HRP (Invitrogen, 434323, diluted at a ratio of 1:4000) was added to each well, and the plate was incubated at 37° C. for 1 h. The supernatant was removed, and the plate was washed 3 times with PBST. 100 μL of TMB chromogenic substrate (KPL, 5120-0077) was added to each well, and the plate was incubated at room temperature for 10-15 min. The reaction was stopped by adding 50 μL of 1 M H₂SO₄ to each well. The plate was read for absorbance values at 450 nm on a microplate reader, the curves for the inhibition of the binding of the ligands to the receptors were fitted with software, and the IC₅₀ values were calculated.
row,IC50 [pM],Binder
1,33500,B1
2,22500,B2
3,42800,B3
4,44700,B4
5,25400,B5
6,27900,B6
7,826000,B7
8,18500,B8

# Biological target: T1, human BAFF (10056-HNCH, Sino biological)
# Assay: ELISA, BAFF coated, fusion protein titrated
# Description: The binding activity of the antibodies or fusion proteins for BAFF, APRIL, and IL-12/23 p40 was assayed by the ELISA method (coating an antigen protein). The specific procedures were as follows:
# A BAFF (Sino biological, 10056-HNCH), APRIL (R&D Systems, 5860-AP-010/CF), or IL-12/23 p40 (Sino biological, 10052-H08H) protein was diluted to 1 μg/mL with a PBS (BasalMedia, B320) buffer at pH 7.4, and added to a 96-well microplate (Corning, 3590) at 100 μL/well. The plate was incubated at 4° C. overnight. After the liquid was discarded, 300 μL of 5% skim milk (BD, 232100) diluted with PBS was added to each well for blocking, and the plate was incubated at 37° C. for 2 h. After the blocking was completed, the blocking solution was discarded, and the plate was washed 3 times with a PBST buffer (PBS at pH 7.4 containing 0.1% tween-20). 100 μL of test antibody or fusion protein solution diluted in a gradient was added to each well, and the plate was incubated at 37° C. for 1 h. After the incubation was completed, the plate was washed 3 times with PBST. […] The plate was washed 3 times with PBST. 100 μL of TMB chromogenic substrate (KPL, 5120-0077) was added to each well, and the plate was incubated at room temperature for 10-15 min. The reaction was stopped by adding 50 μL of 1 M H₂SO₄ to each well. The plate was read for absorbance values at 450 nm on a microplate reader, the binding curves of the antibodies to an antigen were fitted with software, and the EC₅₀ values were calculated.
row,EC50 [pM],Binder
1,382,B9
2,146,B10
3,367,B11
4,470,B12
5,223,B13
6,265,B14
7,122,B15
8,200,B16
9,937,B17
10,433,B18
11,727,B19
12,195,B20
13,278,B21
